Results reported in doi:10.1101/2020.04.23.053322.
Where two headings read alike, the source gives them in different places.

Tests used:
[1] = biological target: ATF6-CFP (human ATF6 fused to mCerulean on the C-terminal side) (human) (UniProt P18850); experiment: FRET or BRET
[2] = biological target: ATF6-CFP (human ATF6 fused to mCerulean on the C-terminal side) (human) (UniProt P18850); experiment: FRET or BRET; remark: listed apart in the source

Chain of UniProt P18850 (P18850 whole entry, the tested form may be a part): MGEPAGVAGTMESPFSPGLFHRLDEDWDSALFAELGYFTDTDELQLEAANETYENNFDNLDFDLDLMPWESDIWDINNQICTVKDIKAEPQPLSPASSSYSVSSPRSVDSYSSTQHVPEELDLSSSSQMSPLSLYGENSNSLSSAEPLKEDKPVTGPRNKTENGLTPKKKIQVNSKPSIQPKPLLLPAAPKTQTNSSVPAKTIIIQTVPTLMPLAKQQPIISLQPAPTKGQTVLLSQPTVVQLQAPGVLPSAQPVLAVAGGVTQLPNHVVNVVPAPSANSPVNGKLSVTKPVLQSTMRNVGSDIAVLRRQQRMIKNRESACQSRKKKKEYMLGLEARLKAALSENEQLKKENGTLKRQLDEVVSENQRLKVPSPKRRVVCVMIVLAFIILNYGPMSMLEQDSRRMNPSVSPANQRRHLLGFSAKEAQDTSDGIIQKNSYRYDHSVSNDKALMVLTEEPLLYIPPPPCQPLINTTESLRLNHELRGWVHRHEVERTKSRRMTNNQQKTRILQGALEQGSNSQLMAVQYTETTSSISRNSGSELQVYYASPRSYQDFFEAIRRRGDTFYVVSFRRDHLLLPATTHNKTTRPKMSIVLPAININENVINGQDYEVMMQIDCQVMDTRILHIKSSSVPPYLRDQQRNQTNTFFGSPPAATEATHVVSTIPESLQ

FRET efficiency [1]: 11.7% | FRET efficiency [2]: 11.4%
Substance: mVenus-tagged sorcin (YFP-SRI) (from UniProt P30626 1-198) (natural protein)
